Test results taken from patent US20080199426A1 (BETH ISRAEL DEACONESS MEDICAL CENTER, published 2008).

B1: SH2 domain of Stap2 (other, UniProt Q9UGK3 133-248, looked up)
chain: YMMSEVLAKEEARRALETPSCFLKVSRLEAQLLLERYPECGNLLLRPSGDGADGVSVTTRQMHNGTHVVRHYKVKREGPKYVIDVEQPFSCTSLDAVVNYFVSHTKKALVPFLLDE
notes: domain: SH2 domain
B2: SH2 domain of SHC1 (other, UniProt P29353 488-579, looked up)
chain: WFHGKLSRREAEALLQLNGDFLVRESTTTPGQYVLTGLQSGQPKHLLLVDPEGVVRTKDHRFESVSHLISYHMDNHLPIISAGSELCLQQPV
notes: domain: SH2 domain
B3: SH2 domain of Fgr (other, UniProt P09769 144-241, looked up)
chain: WYFGKIGRKDAERQLLSPGNPQGAFLIRESETTKGAYSLSIRDWDQTRGDHVKHYKIRKLDMGGYYITTRVQFNSVQELVQHYMEVNDGLCNLLIAPC
notes: domain: SH2 domain
B4: SH2 domain of Nck2 (other, UniProt O43639 285-380, looked up)
chain: WYYGNVTRHQAECALNERGVEGDFLIRDSESSPSDFSVSLKASGKNKHFKVQLVDNVYCIGQRRFHTMDELVEHYKKAPIFTSEHGEKLYLVRALQ
notes: domain: SH2 domain
B5: SH2 domain of Eat2 (other, UniProt O14796 5-101, looked up)
chain: YYHGRLTKQDCETLLLKEGVDGNFLLRDSESIPGVLCLCVSFKNIVYTYRIFREKHGYYRIQTAEGSPKQVFPSLKELISKFEKPNQGMVVHLLKPI
notes: domain: SH2 domain
B6: SH2 domain of Grap (other, UniProt Q13588 60-154, looked up)
chain: WYSGRISRQLAEEILMKRNHLGAFLIRESESSPGEFSVSVNYGDQVQHFKVLREASGKYFLWEEKFNSLNELVDFYRTTTIAKKRQIFLRDEEPL
notes: domain: SH2 domain
B7: SH2 domain of Lck (other, UniProt P06239 127-224, looked up)
chain: WFFKNLSRKDAERQLLAPGNTHGSFLIRESESTAGSFSLSVRDFDQNQGEVVKHYKIRNLDNGGFYISPRITFPGLHELVRHYTNASDGLCTRLSRPC
notes: domain: SH2 domain
B8: SH2 domain of Csk (other, UniProt P41240 82-171, looked up)
chain: WFHGKITREQAERLLYPPETGLFLVRESTNYPGDYTLCVSCDGKVEHYRIMYHASKLSIDEEVYFENLMQLVEHYTSDADGLCTRLIKPK
notes: domain: SH2 domain
B9: SH2 domain of Btk (other, UniProt Q06187 281-377, looked up)
chain: WYSKHMTRSQAEQLLKQEGKEGGFIVRDSSKAGKYTVSVFAKSTGDPQGVIRHYVVCSTPQSQYYLAEKHLFSTIPELINYHQHNSAGLISRLKYPV
notes: domain: SH2 domain
B10: SH2 domain of Nck1 (other, UniProt P16333 282-376, looked up)
chain: WYYGKVTRHQAEMALNERGHEGDFLIRDSESSPNDFSVSLKAQGKNKHFKVQLKETVYCIGQRKFSTMEELVEHYKKAPIFTSEQGEKLYLVKHL
notes: domain: SH2 domain
B11: SH2 domain of Lyn (other, UniProt P07948 129-226, looked up)
chain: WFFKDITRKDAERQLLAPGNSAGAFLIRESETLKGSFSLSVRDFDPVHGDVIKHYKIRSLDNGGYYISPRITFPCISDMIKHYQKQADGLCRRLEKAC
notes: domain: SH2 domain
B12: SH2 domain of Grb14 (other, UniProt Q14449 439-535, looked up)
chain: WFHHKISRDEAQRLIIQQGLVDGVFLVRDSQSNPKTFVLSMSHGQKIKHFQIIPVEDDGEMFHTLDDGHTRFTDLIQLVEFYQLNKGVLPCKLKHYC
notes: domain: SH2 domain
B13: SH2 domain of Brdg1 (other, UniProt Q9ULZ2 177-280, looked up)
chain: ACFYTVSRKEATEMLQKNPSLGNMILRPGSDSRNYSITIRQEIDIPRIKHYKVMSVGQNYTIELEKPVTLPNLFSVIDYFVKETRGNLRPFICSTDENTGQEPS
notes: domain: SH2 domain
B14: SH2 domain of Abl1 (other, UniProt P00519 127-217, looked up)
chain: WYHGPVSRNAAEYLLSSGINGSFLVRESESSPGQRSISLRYEGRVYHYRINTASDGKLYVSSESRFNTLAELVHHHSTVADGLITTLHYPA
notes: domain: SH2 domain
B15: SH2 domain of Yes (other, UniProt P07947 158-255, looked up)
chain: WYFGKMGRKDAERLLLNPGNQRGIFLVRESETTKGAYSLSIRDWDEIRGDNVKHYKIRKLDNGGYYITTRAQFDTLQKLVKHYTEHADGLCHKLTTVC
notes: domain: SH2 domain
B16: SH2 domain of Fyn (other, UniProt P06241 149-246, looked up)
chain: WYFGKLGRKDAERQLLSFGNPRGTFLIRESETTKGAYSLSIRDWDDMKGDHVKHYKIRKLDNGGYYITTRAQFETLQQLVQHYSERAAGLCCRLVVPC
notes: domain: SH2 domain
B17: SH2 domain of Hck (other, UniProt P08631 144-241, looked up)
chain: WFFKGISRKDAERQLLAPGNMLGSFMIRDSETTKGSYSLSVRDYDPRQGDTVKHYKIRTLDNGGFYISPRSTFSTLQELVDHYKKGNDGLCQKLSVPC
notes: domain: SH2 domain
B18: SH2 domain of Matk (other, UniProt P42679 122-211, looked up)
chain: WFHGKISGQEAVQQLQPPEDGLFLVRESARHPGDYVLCVSFGRDVIHYRVLHRDGHLTIDEAVFFCNLMDMVEHYSKDKGAICTKLVRPK
notes: domain: SH2 domain
B19: SH2 domain of RaLP (other, UniProt Q6S5L8 526-617, looked up)
chain: CYHGKLSRKAAESLLVKDGDFLVRESATSPGQYVLSGLQGGQAKHLLLVDPEGKVRTKDHVFDNVGHLIRYHMDNSLPIISSGSEVSLKQPV
notes: domain: SH2 domain
B20: SH2 domain of SHC2 (other, UniProt P98077 487-578, looked up)
chain: WYHGRMSRRAAERMLRADGDFLVRDSVTNPGQYVLTGMHAGQPKHLLLVDPEGVVRTKDVLFESISHLIDHHLQNGQPIVAAESELHLRGVV
notes: domain: SH2 domain
B21: SH2 domain of SHC3 (other, UniProt Q92529 499-590, looked up)
chain: WYQGEMSRKEAEGLLEKDGDFLVRKSTTNPGSFVLTGMHNGQAKHLLLVDPEGTIRTKDRVFDSISHLINHHLESSLPIVSAGSELCLQQPV
notes: domain: SH2 domain
B22: SH2 domain of Fes (other, UniProt P07332 460-549, looked up)
chain: WYHGAIPRAEVAELLVHSGDFLVRESQGKQEYVLSVLWDGLPRHFIIQSLDNLYRLEGEGFPSIPLLIDHLLSTQQPLTKKSGVVLHRAV
notes: domain: SH2 domain
B23: SH2 domain of TNS (other, UniProt Q9HBL0 1567-1676, looked up)
chain: WYKPEISREQAIALLKDQEPGAFIIRDSHSFRGAYGLAMKVSSPPPTIMQQNKKGDMTHELVRHFLIETGPRGVKLKGCPNEPNFGSLSALVYQHSIIPLALPCKLVIPN
notes: domain: SH2 domain
B24: SH2 domain of Crkl (other, UniProt P46109 14-102, looked up)
chain: WYMGPVSRQEAQTRLQGQRHGMFLVRDSSTCPGDYVLSVSENSRVSHYIINSLPNRRFKIGDQEFDHLPALLEFYKIHYLDTTTLIEPA
notes: domain: SH2 domain; also called Crk1

What follows are binders tested against T1, thrombin-activated EphA2 (endogenous, from lysate of HUVECs stimulated with 1 U/ml thrombin for 5 mins) (human, UniProt P29317 24-976, tyrosine phosphorylated after thrombin stimulation (sites not given)) (assay: SH2 domain array with thrombin-stimulated HUVEC lysate, anti-EphA2 detection).
T1 construct: Endogenous EphA2 in a HUVEC lysate, detected on the array with a biotinylated anti-human EphA2 antibody; No signal peptide limits are stated
Protocol: (§1) Methods: We used a phosphotyrosine profiling array to identify signaling pathways linked to EphA2 activation by thrombin. HUVECs were prepared and stimulated with 1 U/ml thrombin for 5 mins. TranSignal Phosphotyrosine Profiling Array (Panomics) was used according to the manufacturer's protocol, except that a biotinylated anti-human EphA2 (R & D) was used as the detection antibody.
(§2) Results: Confluent HUVECs were stimulated with thrombin for 5 mins to induce EphA2 phosphorylation. This stimulated lysate and an unstimulated lysate were used in the antibody array experiment. The concept of this array is similar to a far-western blot. On this array, the SH2 domains of 38 signaling molecules were spotted in duplicate. Upon incubation with a lysate, each of these SH2 domains will bind to its specific, tyrosine phosphorylated protein targets. When an anti-human EphA2 antibody was used for detection, any SH2 domains that are bound to EphA2 will appear as two dots in a specific location of the membrane. Therefore, pathways activated post EphA2 phosphorylation can be identified.

T1 sequence (P29317 24-976 limits assumed): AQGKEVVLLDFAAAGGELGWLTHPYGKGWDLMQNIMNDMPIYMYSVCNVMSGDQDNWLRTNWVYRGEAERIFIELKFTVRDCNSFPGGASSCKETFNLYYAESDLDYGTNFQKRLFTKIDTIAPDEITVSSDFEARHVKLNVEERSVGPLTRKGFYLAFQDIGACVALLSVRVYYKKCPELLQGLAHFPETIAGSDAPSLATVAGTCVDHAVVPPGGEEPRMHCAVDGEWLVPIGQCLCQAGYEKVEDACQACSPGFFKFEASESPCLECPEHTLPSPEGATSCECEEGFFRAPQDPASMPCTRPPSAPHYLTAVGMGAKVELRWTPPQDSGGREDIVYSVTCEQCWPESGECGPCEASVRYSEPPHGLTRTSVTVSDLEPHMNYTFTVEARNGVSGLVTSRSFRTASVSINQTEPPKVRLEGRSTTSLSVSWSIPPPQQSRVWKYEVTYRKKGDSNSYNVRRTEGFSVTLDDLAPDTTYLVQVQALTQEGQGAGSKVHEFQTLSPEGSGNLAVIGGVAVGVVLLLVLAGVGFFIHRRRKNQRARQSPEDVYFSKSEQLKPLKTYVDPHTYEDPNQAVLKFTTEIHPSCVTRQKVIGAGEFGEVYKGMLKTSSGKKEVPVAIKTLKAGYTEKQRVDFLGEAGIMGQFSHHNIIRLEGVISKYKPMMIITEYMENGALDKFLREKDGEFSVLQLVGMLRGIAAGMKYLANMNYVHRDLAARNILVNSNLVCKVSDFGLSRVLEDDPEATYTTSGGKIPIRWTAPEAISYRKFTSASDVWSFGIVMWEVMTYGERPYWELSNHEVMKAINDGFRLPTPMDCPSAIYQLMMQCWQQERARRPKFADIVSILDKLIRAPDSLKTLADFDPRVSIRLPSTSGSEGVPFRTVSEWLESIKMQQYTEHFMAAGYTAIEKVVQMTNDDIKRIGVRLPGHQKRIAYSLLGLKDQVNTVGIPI

Q: Does B1 bind?
A: no binding

Q: Does B2 bind?
A: no binding

Q: Does B3 bind?
A: no binding

Q: Does B4 bind?
A: no binding

Q: Does B5 bind?
A: no binding

Q: Does B6 bind?
A: no binding

Q: Does B7 bind?
A: no binding

Q: Does B8 bind?
A: no binding

Q: Does B9 bind?
A: no binding

Q: Does B10 bind?
A: no binding

Q: Does B11 bind?
A: no binding

Q: Does B12 bind?
A: no binding

Q: Does B13 bind?
A: no binding

Q: Does B14 bind?
A: no binding

Q: Does B15 bind?
A: no binding

Q: Does B16 bind?
A: no binding

Q: Does B17 bind?
A: no binding

Q: Does B18 bind?
A: no binding

Q: Does B19 bind?
A: no binding

Q: Does B20 bind?
A: no binding

Q: Does B21 bind?
A: no binding

Q: Does B22 bind?
A: no binding

Q: Does B23 bind?
A: no binding

The binders below were run against T1, thrombin-activated EphA2 (endogenous, …) (assay: SH2 domain array with thrombin-stimulated HUVEC lysate, anti-human EphA2 detection).
Protocol: as §1, §2

Q: Does B24 bind?
A: binds
